Data: US20150307565A1 (WISCONSIN ALUMNI RESEARCH FOUNDATION, published 2015)

Key:
[1] = target: the molecule itself; assay: equilibrium sedimentation (Pr) and size exclusion chromatography (Pr and Pfr); self-association
Method: FIG. 8A: Apparent size of PhyB(PSM) was measured by size exclusion chromatography (SEC) as either Pr (red circle) or following saturating red light irradiation (mostly Pfr) (purple circle). The column was calibrated with Bio-Rad size-exclusion protein standards and blue dextran (open circles). The partition coefficient, Kₐᵥ, was calculated using the equation, Kₐᵥ=(Vₑ−V₀)/(Vₜ−V₀), where Vₑ, V₀, and Vₜ are the elution, void and total volumes, respectively. V₀ and Vₜ were measured using blue dextran and vitamin B12. FIG. 8B: Equilibrium sedimentation was used to measure the mass of PhyB(PSM) as Pr using two concentrations and three rotor speeds. Lines represent global fits of the data. The calculated ratio of the measured molecular weight to that calculated from the sequence is shown.
Equilibrium sedimentation was conducted at 20° C. in darkness with Beckmann XL-A analytical ultracentrifuge and PhyB dissolved as Pr in SAB. SEC was conducted at 20° C. by FPLC (0.2 ml/min) with a 0.5×20 cm analytical grade Superdex 200 column (GE) equilibrated with SAB and 50 μl of either Pr samples or samples continuously irradiated with red light (mostly Pfr).

[2] = target: the molecule itself; assay: X-ray crystallography (self-association in the crystal)
Method: Well ordered crystals were formed in solutions containing 15 mg/ml PhyB, 1.2 M MgSO₄, 4% glycerol, 1% poly(ethylene glycol) 3350, and 100 mM BisTris(HCl) (pH 5.5). Crystals were exchanged into 100 mM MgSO₄, 25% poly(ethylene glycol) 3350, 15% poly(ethylene glycol) 550 monomethyl ether, and 100 mM BisTris (pH 5.5), and flash cooled in liquid nitrogen. Final datasets were collected at the Life Sciences Collaborative Access Team at the Advanced Photon Source (Argonne, Ill.), and indexed, integrated, and scaled using HKL2000 (Otwinowski et al., Method Enzymol. 276-307-326 (1997)). Initial phases were calculated by PHASER (McCoy et al., J. Appl. Crystallogr 40:658-674 (2007)) using the PAS-GAF region of Syn-Cph1 as the search model (PDB 2VEA, (Essen et al., Proc. Natl. Acad. Sci. USA 105:14709-14714 (2008)). Manual model-building was conducted with COOT (Emlsey et al., Acta Crystallogr D Biol. Crystallogr 60:2126-2132 (2004)) and refined with PHENIX (McCoy et al., J. Appl. Crystallogr 40:658-674 (2007)) without real-space refinement and invoking non-crystallographic symmetry in torsion angle mode, and validated with MOLPROBITY (Chen et al., Acta Crystallogr D Biol. Crystallogr 66:12-21 (2010)). Superpositions were arranged with LSQKAB (Kabsch, Acta Crystallogr A 32:922-923 (1976)).

Protein	binding result [1]	binding result [2]
Arabidopsis PhyB PSM (residues 1-624) assembled with PΦB (receptor, Arabidopsis thaliana, UniProt P14713 1-624, looked up, phytochromobilin (PΦB) attached by a thioether linkage to Cys-357, Tested for self-association in solution as Pr (equilibrium sedimentation, SEC) and as mostly Pfr after red light (SEC); also called full PSM fragment; full-length PSM; not shown: 6His tag: the PSM constructs carried N- or C-terminal 6His tags (the N-terminal one is TEV-cleavable and leaves Gly-His)) MVSGVGGSGGGRGGGRGGEEEPSSSHTPNNRRGGEQAQSSGTKSLRPRSNTESMSKAIQQYTVDARLHAVFEQSGESGKSFDYSQSLKTTTYGSSVPEQQITAYLSRIQRGGYIQPFGCMIAVDESSFRIIGYSENAREMLGIMPQSVPTLEKPEILAMGTDVRSLFTSSSSILLERAFVAREITLLNPVWIHSKNTGKPFYAILHRIDVGVVIDLEPARTEDPALSIAGAVQSQKLAVRAISQLQALPGGDIKLLCDTVVESVRDLTGYDRVMVYKFHEDEHGEVVAESKRDDLEPYIGLHYPATDIPQASRFLFKQNRVRMIVDCNATPVLVVQDDRLTQSMCLVGSTLRAPHGCHSQYMANMGSIASLAMAVIINGNEDDGSNVASGRSSMRLWGLVVCHHTSSRCIPFPLRYACEFLMQAFGLQLNMELQLALQMSEKRVLRTQTLLCDMLLRDSPAGIVTQSPSIMDLVKCDGAAFLYHGKYYPLGVAPSEVQIKDVVEWLLANHADSTGLSTDSLGDAGYPGAAALGDAVCGMAVAYITKRDFLFWFRSHTAKEIKWGGAKHHPEDKDDGQRMHPRSSFQAFLEVVKSRSQPWETAEMDAIHSLQLILRDSFKESEAA	no binding	
Arabidopsis PhyB(90-624) biliprotein bearing a C-terminal SLHHHHHH tag, assembled with phytochromobilin (PΦB) (receptor, Arabidopsis thaliana, phytochromobilin (PΦB) attached by a thioether linkage to Cys-357, Crystallized as Pr; Two subunits (A and B) form the crystal dimer; also called PDB 4OUR) TTYGSSVPEQQITAYLSRIQRGGYIQPFGCMIAVDESSFRIIGYSENAREMLGIMPQSVPTLEKPEILAMGTDVRSLFTSSSSILLERAFVAREITLLNPVWIHSKNTGKPFYAILHRIDVGVVIDLEPARTEDPALSIAGAVQSQKLAVRAISQLQALPGGDIKLLCDTVVESVRDLTGYDRVMVYKFHEDEHGEVVAESKRDDLEPYIGLHYPATDIPQASRFLFKQNRVRMIVDCNATPVLVVQDDRLTQSMCLVGSTLRAPHGCHSQYMANMGSIASLAMAVIINGNEDDGSNVASGRSSMRLWGLVVCHHTSSRCIPFPLRYACEFLMQAFGLQLNMELQLALQMSEKRVLRTQTLLCDMLLRDSPAGIVTQSPSIMDLVKCDGAAFLYHGKYYPLGVAPSEVQIKDVVEWLLANHADSTGLSTDSLGDAGYPGAAALGDAVCGMAVAYITKRDFLFWFRSHTAKEIKWGGAKHHPEDKDDGQRMHPRSSFQAFLEVVKSRSQPWETAEMDAIHSLQLILRDSFKESEAASLHHHHHH		binds
